Drawing on patent US20200370067, this text covers activity (% targeted integration) for two sequences.

The test system of data set [1] is SHS231 right TALEN (synthetic). As to the kind of experiment: cell_activity. The note with it: as pair with left TALEN; 1/81 clones, 293T.
The subject of data set [2] is SHS231 left TALEN (synthetic). Kind of data set: cell_activity. The note with it: as pair with right TALEN; 1/81 clones, 293T.

As to “TGTATGCTTTCCTCTTGTTA (double strand) [SHS231 right TALEN half-site]”, the activity (% targeted integration) in data set [1] amounted to 1.23.
In the case of “TTGGCTAGGGCTAAGGATTA (double strand) [SHS231 left TALEN half-site]”, the activity (% targeted integration) in data set [2] turned out to be 1.23.
